From publication PMC12507022, “Widespread distribution of BpfA-mediated bisphenol F degradation among members of the Pseudomonadota and Actinomycetota” (The ISME Journal, 2025) come the findings set out here.

The Km is the concentration of substrate that gives half-maximal velocity. Broadly, the kcat is the maximal rate divided by the concentration of active sites.

What all share (assay): HPLC, Michaelis-Menten fit
Settings in all cases: 20 mM Tris-HCl pH 8.0, 30 °C, O2 as electron acceptor

Substrate in data set [1]: CCCc1ccc(O)c(OC)c1
It is filed as biochemical, Rhodococcus jostii.

Substrate in data set [2]: COCc1ccc(O)cc1
It is filed as biochemical, Rhodococcus jostii.

Substrate in data set [3]: COc1cc(CO)ccc1O
It counts as biochemical, Rhodococcus jostii.

Substrate in data set [4]: Oc1ccc(Cc2ccc(O)cc2)cc1
It counts as biochemical, Rhodococcus jostii.

Substrate in data set [5]: CCCc1ccc(O)c(OC)c1
It counts as biochemical, Penicillium simplicissimum.

Substrate in data set [6]: COCc1ccc(O)cc1
It is filed as biochemical, Penicillium simplicissimum.

Substrate in data set [7]: COc1cc(CO)ccc1O
It counts as biochemical, Penicillium simplicissimum.

Substrate in data set [8]: Oc1ccc(Cc2ccc(O)cc2)cc1
It counts as biochemical, Penicillium simplicissimum.

B1: EUGO (Rhodococcus jostii RHA1) (protein)
chain: MTRTLPPGVSDERFDAALQRFRDVVGDKWVLSTADELEAFRDPYPVGAAEANLPSAVVSPESTEQVQDIVRIANEYGIPLSPVSTGKNNGYGGAAPRLSGSVIVKTGERMNRILEVNEKYGYALLEPGVTYFDLYEYLQSHDSGLMLDCPDLGWGSVVGNTLDRGVGYTPYGDHFMWQTGLEVVLPQGEVMRTGMGALPGSDAWQLFPYGFGPFPDGMFTQSNLGIVTKMGIALMQRPPASQSFLITFDKEEDLEQIVDIMLPLRINMAPLQNVPVLRNIFMDAAAVSKRTEWFDGDGPMPAEAIERMKKDLDLGFWNFYGTLYGPPPLIEMYYGMIKEAFGKIPGARFFTHEERDDRGGHVLQDRHKINNGIPSLDELQLLDWVPNGGHIGFSPVSAPDGREAMKQFEMVRNRANEYNKDYAAQFIIGLREMHHVCLFIYDTAIPEAREEILQMTKVLVREAAEAGYGEYRTHNALMDDVMATFNWGDGALLKFHEKIKDALDPNGIIAPGKSGIWSQRFRGQNL
notes: synthetic gene, expressed and purified like BpfA (E. coli, Ni-NTA); contains flavin
For the protein B1, the Km in data set [1] was found to be 59.3 ± 0.7 µM; in data set [2], 73.2 ± 1.5 µM; in data set [3], 89.6 ± 11.3 µM; in data set [4] it was 185.1 ± 11.3 µM. Besides, the kcat in data set [1] is 4.8 ± 0.002 s⁻¹; in data set [2], 4.1 ± 0.01 s⁻¹; in data set [3] it was 5.9 ± 0.3 s⁻¹; in data set [4], 0.04 ± 0.003 s⁻¹. For the same protein, the kcat/Km in data set [1] is recorded as 80.9 b; in data set [2], 56.0 a; in data set [3], 65.8 a; in data set [4], 0.2 b.

B2: VAO (Penicillium simplicissimum) (protein)
chain: MSKTQEFRPLTLPPKLSLSDFNEFIQDIIRIVGSENVEVISSKDQIVDGSYMKPTHTHDPHHVMDQDYFLASAIVAPRNVADVQSIVGLANKFSFPLWPISIGRNSGYGGAAPRVSGSVVLDMGKNMNRVLEVNVEGAYCVVEPGVTYHDLHNYLEANNLRDKLWLDVPDLGGGSVLGNAVERGVGYTPYGDHWMMHSGMEVVLANGELLRTGMGALPDPKRPETMGLKPEDQPWSKIAHLFPYGFGPYIDGLFSQSNMGIVTKIGIWLMPNPRGYQSYLITLPKDGDLKQAVDIIRPLRLGMALQNVPTIRHILLDAAVLGDKRSYSSRTEPLSDEELDKIAKQLNLGRWNFYGALYGPEPIRRVLWETIKDAFSAIPGVKFYFPEDTPENSVLRVRDKTMQGIPTYDELKWIDWLPNGAHLFFSPIAKVSGEDAMMQYAVTKKRCQEAGLDFIGTFTVGMREMHHIVCIVFNKKDLIQKRKVQWLMRTLIDDCAANGWGEYRTHLAFMDQIMETYNWNNSSFLRFNEVLKNAVDPNGIIAPGKSGVWPSQYSHVTWKL
notes: as for B1
Regarding B2, the Km in data set [5] is 71.4 ± 11.6 µM; in data set [6], 72.0 ± 7.1 µM; in data set [7] it was 140 ± 12.3 µM; in data set [8], 205.6 ± 18.5 µM. Besides, the kcat in data set [5] came out at 5 ± 0.02 s⁻¹; in data set [6], 3.9 ± 0.009 s⁻¹; in data set [7], 6.0 ± 0.2 s⁻¹; in data set [8] it was 0.05 ± 0.001 s⁻¹. Also, the kcat/Km in data set [5] came out at 70.4 b; in data set [6] it was 54.2 a; in data set [7] it was 42.9 b; in data set [8], 0.2 b.
